This note sets out measurements from patent publication US20260242735A1 (UNIVERSIT T BASEL, published 2026).

Holding throughout (test): alanine scan, flow cytometry, HEK293-T;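 further: antibody binding to each alanine-substituted CD33 mutant expressed transiently in HEK293-T, read as fluorescence minus background, mean of duplicates, relative to wild-type CD33 set as 100%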
In assay [1] the target is human CD33 C212A (human, UniProt P20138 18-364).
Assay [2] concerns the target human CD33 L103A (human, UniProt P20138 18-364).
For assay [3], the target named is human CD33 P46A (human, UniProt P20138 18-364).
human CD33 P46A, sequence (P20138 18-364 P46A limits assumed): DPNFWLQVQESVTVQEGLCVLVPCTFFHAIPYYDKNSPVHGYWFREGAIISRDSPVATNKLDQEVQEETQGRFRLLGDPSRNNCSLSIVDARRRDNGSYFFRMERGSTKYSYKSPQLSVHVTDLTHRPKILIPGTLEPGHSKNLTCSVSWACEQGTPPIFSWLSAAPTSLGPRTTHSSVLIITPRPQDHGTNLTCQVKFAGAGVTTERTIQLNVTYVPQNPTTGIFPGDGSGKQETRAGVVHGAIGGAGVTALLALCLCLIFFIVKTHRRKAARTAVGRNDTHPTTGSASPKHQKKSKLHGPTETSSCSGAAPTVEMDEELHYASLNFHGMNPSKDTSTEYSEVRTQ
Assay [4] concerns the target human CD33 R110A (human, UniProt P20138 18-364).
Assay [5] concerns the target human CD33 T86A (human, UniProt P20138 18-364).
The target of assay [6] is human CD33 D51A (human, UniProt P20138 18-364).
human CD33 D51A, sequence (P20138 18-364 D51A limits assumed): as the sequence (P20138 18-364 P46A limits assumed) above, with A29P, D34A counted along it
Assay [7] deals with human CD33 V73A (human, UniProt P20138 18-364).
human CD33 V73A, sequence (P20138 18-364 V73A limits assumed): as the sequence (P20138 18-364 P46A limits assumed) above, with A29P, V56A counted along it
In assay [8] the target is human CD33 Y49A (human, UniProt P20138 18-364).
human CD33 Y49A, sequence (P20138 18-364 Y49A limits assumed): as the sequence (P20138 18-364 P46A limits assumed) above, with A29P, Y32A counted along it
Assay [9] addresses human CD33 S104A (human, UniProt P20138 18-364).
For assay [10], the target named is human CD33 V82A (human, UniProt P20138 18-364).
human CD33 V82A, sequence (P20138 18-364 V82A limits assumed): as the sequence (P20138 18-364 P46A limits assumed) above, with A29P, V65A counted along it
The target in assay [11] is human CD33 D112A (human, UniProt P20138 18-364).
human CD33 D112A, sequence (P20138 18-364 D112A limits assumed): as the sequence (P20138 18-364 P46A limits assumed) above, with A29P, D95A counted along it
Assay [12] addresses human CD33 G64A (human, UniProt P20138 18-364).
The target in assay [13] is human CD33 N113A (human, UniProt P20138 18-364).
human CD33 N113A, sequence (P20138 18-364 N113A limits assumed): as the sequence (P20138 18-364 P46A limits assumed) above, with A29P, N96A counted along it
In assay [14] the target is human CD33 I47A (human, UniProt P20138 18-364).
human CD33 I47A, sequence (P20138 18-364 I47A limits assumed): as the sequence (P20138 18-364 P46A limits assumed) above, with A29P, I30A counted along it
The target in assay [15] is human CD33 Y59A (human, UniProt P20138 18-364).
human CD33 Y59A, sequence (P20138 18-364 Y59A limits assumed): as the sequence (P20138 18-364 P46A limits assumed) above, with A29P, Y42A counted along it
Assay [16] deals with human CD33 R89A (human, UniProt P20138 18-364).
human CD33 R89A, sequence (P20138 18-364 R89A limits assumed): as the sequence (P20138 18-364 P46A limits assumed) above, with A29P, R72A counted along it
Assay [17] deals with human CD33 A74S (human, UniProt P20138 18-364).
human CD33 A74S, sequence (P20138 18-364 A74S limits assumed): as the sequence (P20138 18-364 P46A limits assumed) above, with A29P, A57S counted along it
In assay [18] the target is human CD33 V56A (human, UniProt P20138 18-364).
human CD33 V56A, sequence (P20138 18-364 V56A limits assumed): as the sequence (P20138 18-364 P46A limits assumed) above, with A29P, V39A counted along it
For assay [19], the target named is human CD33 F118A (human, UniProt P20138 18-364).
human CD33 F118A, sequence (P20138 18-364 F118A limits assumed): as the sequence (P20138 18-364 P46A limits assumed) above, with A29P, F101A counted along it
The target of assay [20] is human CD33 A108S (human, UniProt P20138 18-364).
human CD33 A108S, sequence (P20138 18-364 A108S limits assumed): as the sequence (P20138 18-364 P46A limits assumed) above, with A29P, A91S counted along it
For assay [21], the target named is human CD33 W60A (human, UniProt P20138 18-364).
human CD33 W60A, sequence (P20138 18-364 W60A limits assumed): as the sequence (P20138 18-364 P46A limits assumed) above, with A29P, W43A counted along it
Assay [22] has as its target human CD33 G94A (human, UniProt P20138 18-364).
The target in assay [23] is T1, human CD33 P132A (human, UniProt P20138 18-364).
T1 construct: alanine scan clone, transfected HEK293-T
T1 sequence (P20138 18-364 P132A limits assumed): as the sequence (P20138 18-364 P46A limits assumed) above, with A29P, P115A counted along it

Assay [24] has as its target T2, human CD33 V165A (human, UniProt P20138 18-364).
T2 construct: alanine scan clone, transfected HEK293-T

Assay [25] addresses T3, human CD33 S181A (human, UniProt P20138 18-364).
T3 construct: alanine scan clone, transfected HEK293-T

For assay [26], the target named is T4, human CD33 S164A (human, UniProt P20138 18-364).
T4 construct: alanine scan clone, transfected HEK293-T
T4 sequence (P20138 18-364 S164A limits assumed): as the sequence (P20138 18-364 P46A limits assumed) above, with A29P, S147A counted along it

For assay [27], the target named is T5, human CD33 S135A (human, UniProt P20138 18-364).
T5 construct: alanine scan clone, transfected HEK293-T
T5 sequence (P20138 18-364 S135A limits assumed): as the sequence (P20138 18-364 P46A limits assumed) above, with A29P, S118A counted along it

Assay [28] concerns the target T6, human CD33 V136A (human, UniProt P20138 18-364).
T6 construct: alanine scan clone, transfected HEK293-T

The target in assay [29] is T7, human CD33 L187A (human, UniProt P20138 18-364).
T7 construct: alanine scan clone, transfected HEK293-T
T7 sequence (P20138 18-364 L187A limits assumed): as the sequence (P20138 18-364 P46A limits assumed) above, with A29P, L170A counted along it

Assay [30] addresses T8, human CD33 H157A (human, UniProt P20138 18-364).
T8 construct: alanine scan clone, transfected HEK293-T

In assay [31] the target is T9, human CD33 K126A (human, UniProt P20138 18-364).
T9 construct: alanine scan clone, transfected HEK293-T
T9 sequence (P20138 18-364 K126A limits assumed): as the sequence (P20138 18-364 P46A limits assumed) above, with A29P, K109A counted along it

For assay [32], the target named is T10, human CD33 S131A (human, UniProt P20138 18-364).
T10 construct: alanine scan clone, transfected HEK293-T
T10 sequence (P20138 18-364 S131A limits assumed): as the sequence (P20138 18-364 P46A limits assumed) above, with A29P, S114A counted along it

The target in assay [33] is T11, human CD33 V138A (human, UniProt P20138 18-364).
T11 construct: alanine scan clone, transfected HEK293-T
T11 sequence (P20138 18-364 V138A limits assumed): as the sequence (P20138 18-364 P46A limits assumed) above, with A29P, V121A counted along it

In assay [34] the target is T12, human CD33 S178A (human, UniProt P20138 18-364).
T12 construct: alanine scan clone, transfected HEK293-T
T12 sequence (P20138 18-364 S178A limits assumed): as the sequence (P20138 18-364 P46A limits assumed) above, with A29P, S161A counted along it

Assay [35] addresses T13, human CD33 E154A (human, UniProt P20138 18-364).
T13 construct: alanine scan clone, transfected HEK293-T

Assay [36] addresses T14, human CD33 H137A (human, UniProt P20138 18-364).
T14 construct: alanine scan clone, transfected HEK293-T

human CD33 T86A, sequence (P20138 18-364 T86A limits assumed): as the sequence (P20138 18-364 P46A limits assumed) above, with A29P, T69A counted along it
T13 sequence (P20138 18-364 E154A limits assumed): as the sequence (P20138 18-364 P46A limits assumed) above, with A29P, E137A counted along it
human CD33 G64A, sequence (P20138 18-364 G64A limits assumed): as the sequence (P20138 18-364 P46A limits assumed) above, with A29P, G47A counted along it
T14 sequence (P20138 18-364 H137A limits assumed): as the sequence (P20138 18-364 P46A limits assumed) above, with A29P, H120A counted along it
T2 sequence (P20138 18-364 V165A limits assumed): as the sequence (P20138 18-364 P46A limits assumed) above, with A29P, V148A counted along it
T8 sequence (P20138 18-364 H157A limits assumed): as the sequence (P20138 18-364 P46A limits assumed) above, with A29P, H140A counted along it
human CD33 L103A, sequence (P20138 18-364 L103A limits assumed): as the sequence (P20138 18-364 P46A limits assumed) above, with A29P, L86A counted along it
human CD33 S104A, sequence (P20138 18-364 S104A limits assumed): as the sequence (P20138 18-364 P46A limits assumed) above, with A29P, S87A counted along it
T6 sequence (P20138 18-364 V136A limits assumed): as the sequence (P20138 18-364 P46A limits assumed) above, with A29P, V119A counted along it
human CD33 C212A, sequence (P20138 18-364 C212A limits assumed): as the sequence (P20138 18-364 P46A limits assumed) above, with A29P, C195A counted along it
T3 sequence (P20138 18-364 S181A limits assumed): as the sequence (P20138 18-364 P46A limits assumed) above, with A29P, S164A counted along it
human CD33 G94A, sequence (P20138 18-364 G94A limits assumed): as the sequence (P20138 18-364 P46A limits assumed) above, with A29P, G77A counted along it
human CD33 R110A, sequence (P20138 18-364 R110A limits assumed): as the sequence (P20138 18-364 P46A limits assumed) above, with A29P, R93A counted along it

B1: Refmab #3 (antibody, V domains shown)
VH: QVQLVQSGAEVKKPGSSVKVSCKASGYTFTDYNMHWVRQAPGQGLEWIGYIYPYNGGTGYNQKFKSKATITADESTNTAYMELSSLRSEDTAVYYCARGRPAMDYWGQGTLVTVSS
VL: DIQMTQSPSSLSASVGDRVTITCRASESVDNYGISFMNWFQQKPGKAPKLLIYAASNQGSGVPSRFSGSGSGTDFTLTISSLQPDDFATYYCQQSKEVPWTFGQGTKVEIK
notes: In the alanine scan antibodies were used as IgG or Fab
Turning to B1, in [1], the “Mean % WT Binding” value came out at 57.3%.

B2: Refmab #5 (antibody, V domains shown)
VH: QVQLVQSGAEVKKPGASVKVSCKASGYTFTNYDINWVRQAPGQGLEWIGWIYPGDGSTKYNEKFKAKATLTADTSTSTAYMELRSLRSDDTAVYYCASGYEDAMDYWGQGTTVTVSS
VL: DIQMTQSPSSLSASVGDRVTINCKASQDINSYLSWFQQKPGKAPKTLIYRANRLVDGVPSRFSGSGSGQDYTLTISSLQPEDFATYYCLQYDEFPLTFGGGTKVEIK
notes: Full-length format is human IgG1 Fc silent (PG-LALA); also made as Fab; The alanine scan used IgG or Fab
Regarding B2, the “Mean % WT Binding” value in assay [2] amounted to 91.6 % WT binding; in assay [3], 79.1 % WT binding; in [4], 125 % WT binding; in assay [5] it was 124 % WT binding; in assay [6], 105 % WT binding; in assay [7], 112 % WT binding. In addition, the “Mean % WT Binding” value in [8] amounted to 20.6 % WT binding; in assay [9], 109 % WT binding; in assay [10] it was 122 % WT binding; in [11], 61.2 % WT binding; in assay [12] it was 136 % WT binding; in assay [13], 64 % WT binding. The “Mean % WT Binding” value in [14] was determined as 117 % WT binding; in assay [15], 205 % WT binding; in assay [16] it was 137 % WT binding; in assay [17], 99 % WT binding; in assay [18], 93 % WT binding; in assay [19] it was 11.1 % WT binding. Also, the “Mean % WT Binding” value is 105 % WT binding in assay [20], 35.9 % WT binding in assay [21] and 92.2 % WT binding in assay [22].

B3: Refmab #5 (antibody, V domains shown)
VH: QVQLVQSGAEVKKPGASVKVSCKASGYTFTNYDINWVRQAPGQGLEWIGWIYPGDGSTKYNEKFKAKATLTADTSTSTAYMELRSLRSDDTAVYYCASGYEDAMDYWGQGTTVTVSS
VL: DIQMTQSPSSLSASVGDRVTINCKASQDINSYLSWFQQKPGKAPKTLIYRANRLVDGVPSRFSGSGSGQDYTLTISSLQPEDFATYYCLQYDEFPLTFGGGTKVEIK
notes: The alanine scan used IgG or Fab
Take B3: the “Mean % WT Binding” value was determined as 97.3 % WT binding in [23]; 174 % WT binding in [24]; 128 % WT binding in [25]; 110 % WT binding in assay [26]; 108 % WT binding in assay [27]; 104 % WT binding in assay [28]. Further, the “Mean % WT Binding” value in [29] is 144 % WT binding; in assay [30] it was 102 % WT binding; in assay [31], 134 % WT binding; in [32], 106 % WT binding; in assay [33], 101 % WT binding; in assay [34], 117 % WT binding. Further, the entries for the “Mean % WT Binding” value in assay [35] and in assay [36] were 112 % WT binding and 120 % WT binding, respectively.

B4: Refmab #4 (antibody, V domains shown)
VH: QVQLVQSGAEVKKPGESVKVSCKASGYTFTNYGMNWVKQAPGQGLEWMGWINTYTGEPTYADKFQGRVTMTTDTSTSTAYMEIRNLGGDDTAVYYCARWSWSDGYYVYFDYWGQGTSVTVSS
VL: DIVMTQSPDSLTVSLGERTTINCKSSQSVLDSSTNKNSLAWYQQKPGQPPKLLLSWASTRESGIPDRFSGSGSGTDFTLTIDSPQPEDSATYYCQQSAHFPITFGQGTRLEIK
notes: as for B1
Take B4: in assay [1], the “Mean % WT Binding” value is 11%.

B5: Refmab #6 (antibody, V domains shown)
VH: QVQLQQPGAEVVKPGASVKMSCKASGYTFTSYYIHWIKQTPGQGLEWVGVIYPGNDDISYNQKFQGKATLTADKSSTTAYMQLSSLTSEDSAVYYCAREVRLRYFDVWGQGTTVTVSS
VL: EIVLTQSPGSLAVSPGERVTMSCKSSQSVFFSSSQKNYLAWYQQIPGQSPRLLIYWASTRESGVPDRFTGSGSGTDFTLTISSVQPEDLAIYYCHQYLSSRTFGQGTKLEIK
notes: as for B2
B5: the “Mean % WT Binding” value in assay [2] was 61.5 % WT binding; in assay [3], 49.3 % WT binding; in assay [4] it was 98.4 % WT binding; in assay [5] it was 80.1 % WT binding; in [6], 61.7 % WT binding; in [7] it was 77.7 % WT binding. Also, the “Mean % WT Binding” value came out at 113 % WT binding in assay [8]; 90.9 % WT binding in [9]; 110 % WT binding in assay [10]; 51.6 % WT binding in [11]; 92.9 % WT binding in assay [12]; 89.7 % WT binding in [13]. In addition, the “Mean % WT Binding” value in [14] turned out to be 117 % WT binding; in [15], 83.2 % WT binding; in [16] it was 80.8 % WT binding; in [17] it was 94.9 % WT binding; in assay [18], 113 % WT binding; in [19], 4.9 % WT binding. The “Mean % WT Binding” value in assay [20] amounted to 78.4 % WT binding; in assay [21] it was 2.1 % WT binding; in [22] it was 93.1 % WT binding.

B6: Refmab #6 (antibody, V domains shown)
VH: QVQLQQPGAEVVKPGASVKMSCKASGYTFTSYYIHWIKQTPGQGLEWVGVIYPGNDDISYNQKFQGKATLTADKSSTTAYMQLSSLTSEDSAVYYCAREVRLRYFDVWGQGTTVTVSS
VL: EIVLTQSPGSLAVSPGERVTMSCKSSQSVFFSSSQKNYLAWYQQIPGQSPRLLIYWASTRESGVPDRFTGSGSGTDFTLTISSVQPEDLAIYYCHQYLSSRTFGQGTKLEIK
notes: as for B3
Consider B6, for which the “Mean % WT Binding” value in assay [23] came out at 3.6 % WT binding; in [24], 101 % WT binding; in assay [25], 102 % WT binding; in assay [26] it was 100 % WT binding; in [27], 110 % WT binding; in assay [28], 65.8 % WT binding. Besides, the “Mean % WT Binding” value in [29] is 119 % WT binding; in assay [30] it was 96.3 % WT binding; in assay [31], 134 % WT binding; in assay [32], 10.8 % WT binding; in assay [33] it was 65.4 % WT binding; in assay [34], 102 % WT binding. For the same molecule, the “Mean % WT Binding” value in assay [35] was found to be 86.2 % WT binding; in [36], 117 % WT binding.
